# From patent US7629135B2, “Toll-like receptor agonists and antagonists and methods of use thereof” (The Board of Trustees of the University of Illinois, priority 2006, dated 2009)
# B1: SAA: Recombinant human SAA purchased from PeproTech; major acute-phase protein of 104 amino acids (protein, UniProt P0DJI8 19-122, looked up)
# Serum amyloid A-1 protein: RSFFSFLGEAFDGARDMWRAYSDMREANYIGSDKYFHARGNYDAAKRGPGGAWAAEVITDARENIQRFFGHGAEDSLADQAANEWGRSGKDPNHFRPAGLPEKY
# Legend:
# [1] = test system: TLR2-HeLa cells; experiment: IL-8 secretion in TLR2-HeLa cells (ELISA); type: cell-based, human; settings: SAA 1 μM, up to 24 hours
# Method: FIG. 7 is a series of studies showing SAA-induced response in transfected HeLa cells. […] Pam3CSK4 is a known agonist for TLR2 and was used as a control. […] FIG. 7B is time course of SAA-induced IL-8 secretion in TLR2-HeLa cells compared to mock-transfected HeLa cells. SAA was used at 1 μM and the cells were stimulated for up to 24 hours. The supernatant was collected and secreted IL-8 was measured using ELISA.
# In addition to the TLR2-HeLa cell line, a HeLa cell line stably expressing TLR2 and a 5xNF-κB luciferase reporter (pNF-kappaB-Luc, FIG. 13) was generated. This second cell line offers improved consistency between experiments by eliminating the need for transiently transfecting the NF-κB reporter each time an reporter assay is conducted. […] The TNFαc-stimulated reporter activity was used as an independent indicator for comparison. Both cell lines have been and will be used in characterization of SAA-induced functions and in screening assays. […] The TLR2-independent effect in IL-8 secretion was determined in parallel, in mock-transfected HeLa cells lacking the exogenous TLR2 (FIG. 7B).
# [2] = test system: G-CSF transcript in BMDM; experiment: Cytokine transcript induction in BMDM (RT-PCR, real-time PCR); type: cell-based, mouse; settings: SAA 1 μM
# Method: To investigate the mechanism for SAA-induced G-CSF production, the level of G-CSF transcript in SAA-stimulated BMDM was determined. […] The induction of G-CSF transcript peaked at 4 h after SAA stimulation. Since transcription of the G-CSF gene involves NF-κB binding to the RelA/p65 consensus element in the CK-1 site of the G-CSF promoter (Dunn et al., 1994; Hareng and Hartung, 2002), the role of NF-κB in SAA-stimulated G-CSF expression was determined. […] Using oligonucleotide probe based on the sequence of the CK-1 site (−161 to −152 in the G-CSF promoter), a protein •DNA complex (FIG. 2C) was identified. […] Inclusion of a RelA/p65 antibody blocking peptide in the assay abrogated the immunoprecipitation (FIG. 2D).
# TLR2 mediates the effect of SAA in G-CSF expression and neutrophila: To further determine a role of TLR2 in SAA-stimulated G-CSF expression and neutrophilia, wild-type and tlr2^−/− BMDM were stimulated with SAA (1 μM) and the level of G-CSF transcript (FIG. 5A) was determined. SAA induced a 37-fold induction of the mouse G-CSF transcript within 2 h of stimulation. […] Under similar experimental conditions, SAA stimulated increases in the transcripts of M-CSF (encoded by csf1; 11-fold over basal) IL-12p40 (33-fold) and IL-1 receptor antagonist (2.7-fold). In tlr2^−/− BMDM, the SAA-stimulated induction of these transcripts was reduced by 84% (M-CSF), 86% (IL-12p40), and 80% (IL-1 receptor antagonist), respectively. […] The effects of TLR2 gene deletion on SAA-induced G-CSF production and neutrophilia were determined in vivo. Subcutaneous injection of SAA was carried out in wild-type and tlr2^−/− mice for up to 7 days.
# Measurement of G-CSF expression: To measure the secreted G-CSF from human monocytes and mouse macrophages in vitro, cells were placed in serum-free DMEM medium and stimulated with the indicated ligands. Cell-free supernatants were collected by centrifugation at 1,000×g for 30 sec and assayed for human or mouse G-CSF using ELISA. Human PBMC were used as 2×10^6 cells/ml/sample, and mouse BMDM were seeded at 10^6 cells/ml and used as 0.5 ml/sample. To measure mouse plasma G-CSF, blood samples were collected and centrifuged at 1,000-2,000×g for 10 min at 4° C. Plasma samples were appropriately diluted and then checked for G-CSF concentration using ELISA. To measure mouse G-CSF transcripts, mouse […] (10^6 cells/ml, 5 ml/sample) were stimulated with 1 μM SAA for different periods of time. Total RNA was isolated with an RNeasy isolation kit (Qiagen) and cDNA was prepared with Superscript reverse transcriptase (Invitrogen). PCR amplification of G-CSF transcripts was accomplished with specific primers (F346: 5′-[…]-3′ (SEQ ID NO:3) and R980: 5′-CAGGGCTCACTGATTT TTTGG-3′) (SEQ ID NO:4), generating a 634-bp fragment. M-actin gene (a 469 bp fragment) was used for verification of equal loading and of RT-PCR efficiency. Real-time quantitative PCR was performed on a ABI PRISM 7000 Sequence Detection System (Applied Biosystems) as described previously (He et al., 2006). All data were analyzed with the ABI PRISM 7000 SDS software (version 1.1). Relative level of mRNA for G-CSF was determined by normalizing with β-actin mRNA level. The sequences of the primers used are: F229 (5′-[…]-3′) (SEQ ID NO:5) and R502 (5′-[…]-3′) (SEQ ID NO:6) for G-CSF and F413 (5′-CCCTAAGGCCAACCGTGAA-3′) (SEQ ID NO:7) and R882 (5′-[…]-3′) (SEQ ID NO:8) for β-actin.
molecule,measurement,setting,value
B1,secretion of IL-8,[1],time-dependent increase in the secretion of IL-8
same,reduction of G-CSF transcript induction in tlr2−/− vs wild-type BMDM,[2],94%
same,reduction of IL-1 receptor antagonist transcript induction in tlr2−/− BMDM,[2],80%
same,reduction of IL-12p40 transcript induction in tlr2−/− BMDM,[2],86%
same,reduction of M-CSF transcript induction in tlr2−/− BMDM,[2],84%
same,time of peak induction of G-CSF transcript,"[2]; BMDM, RT-PCR",4 h
same,induction of G-CSF transcript over basal level,[2]; tlr2−/− BMDM,2 fold
same,increase in IL-1 receptor antagonist transcript,[2]; wild-type BMDM,2.7 fold
same,increase in IL-12p40 transcript,[2]; wild-type BMDM,33 fold
same,increase in M-CSF transcript over basal,[2]; wild-type BMDM,11 fold
same,induction of mouse G-CSF transcript,"[2]; wild-type BMDM, within 2 h, real-time PCR",37 fold
